Consider 1 molecule from PMC3314626, “Crystal Structures of the Tetratricopeptide Repeat Domains of Kinesin Light Chains: Insight into Cargo Recognition Mechanisms” (PLoS ONE, 2012).

This test addresses T1, KLC2-TPR S328N mutant (human, UniProt Q9H0B6-1 217-480, S328N).
T1 construct: kinesin light chain 2 (KLC2), human, TPR domain, residues 217-480 of GenBank NP_073733, with S328N; made from the KLC2-TPR construct with a QuickChange kit; also called KLC2-S328N; not shown: His6 (from the vector pET28-LIC, modified)
Nature of the test: ITC; peptide (1-3 mM) in the syringe injected into 60-130 uM KLC1-TPR or KLC2-TPR (or mutant) in the cell; 25 C; 20 mM Bis-Tris pH 6.5, 500 mM NaCl, 0.5 mM TCEP; one-site binding model. As to conditions: both partners purified. (In general: Isothermal titration calorimetry measures the heat released or taken up as one component is titrated into another.)

T1 sequence (Q9H0B6 217-480 S328N): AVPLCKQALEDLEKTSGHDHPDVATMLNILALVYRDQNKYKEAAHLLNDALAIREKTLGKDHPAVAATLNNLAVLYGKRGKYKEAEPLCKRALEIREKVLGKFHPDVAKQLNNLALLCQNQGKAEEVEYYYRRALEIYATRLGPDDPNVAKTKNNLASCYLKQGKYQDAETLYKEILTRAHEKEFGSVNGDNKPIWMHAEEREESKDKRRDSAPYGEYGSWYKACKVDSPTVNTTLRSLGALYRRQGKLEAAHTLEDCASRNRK

B1: JIP1 peptide (C-terminal residues of JNK-interacting protein 1) (peptide)
peptide: Ac-EYTCPTEDIYLE-OH
notes: also called JIP peptide; source: synthetic peptide (Tufts University Core Facility)
As usually defined, the Kd is a measure of binding affinity in units of concentration. Low readings indicate higher affinity, high ones lower affinity. One may read the stoichiometry N as the number of molecules, sites or subunits per partner or assembly. Take B1: the dissociation constant (Kd) was found to be 18.7 µM, the dH is -15.9 kcal/mol and the “stoichiometry N” value was determined as 1.18.
